The DeepSol protein solubility set

Experiment: soluble on expression in E. coli; label from the status in PepcDB or PDB records

| Sequence | soluble on expression in E. coli |
| --- | --- |
| MAWMEVRGKRFEILVRPELAFRYKEKGDVDLEDVLWTDTIYRDVRKGLKASPEEVKKAFGTSDPRRVAEKILKEGEIQLTEEQRRRLLEAKRRQIISYIARNAIDPTTGRPIPEARIEAALEEVRFPINLWRDAESQAVEAVRLIARVMPIRLARALLEVKIPPPHSGRAYQALMRMGEVKKADWLPDGSLKAELEIPAGAQVEVTSRIQALARGAAEVKVKKVAAAAAAALEHHHHHH | soluble |
| MAGHSHWAQIKHKKAKVDAQRGKLFSKLIREIIVATRLGGPNPEFNPRLRTAIEQAKKANMPWENIERAIKKGAGELEGEQFEEVIYEGYAPGGVAVMVLATTDNRNRTTSEVRHVFTKHGGNLGASGCVSYLFERKGYIEVPAKEVSEEELLEKAIEVGAEDVQPGEEVHIIYTVPEELYEVKENLEKLGVPIEKAQITWKPISTVQINDEETAQKVIKLLNALEELDDVQQVIANFEIPEEILQKVGLEHHHHHH | not soluble |
| MKWPWWPVCVPLSKRLTLPLPSTANPVVQPSRLALACANRLFEAADNRERFLQALMTPPAYPATVLWCGEPAAALPFAALPPLPWQPPWVSRFVAGSPTGQHPLHAAGAYYCLDSSSVFAAVPLLTLPQEPSLVIDVCAAPGGKSLFAWRSLHPRYLICNETIGKRVGKLIGNLKRCRVHPVGVTSWDSEVLAAEFQGTADVVIVDAPCSGQSLLAKGQKAEGCFHPLTIRHNQRRQKRILAAATTLVRPGGWLLYSTCTFSQDENEDVAAWLMAKFPHLLPQPVPALAAYQSHLAAFPCYRLWPHQGEGAGAFTILWQHQGLEHHHHHH | soluble |
| MSKFDTSALEAFVRHIPQNYKGPGGVVAVVKDGEVVLQHAWGFADLRTRTPMTLDTRMPICSVSKQFTCAVLLDAVGEPELLDDALEAYLDKFEDERPAVRDLCNNQSGLRDYWALSVLCGADPEGVFLPAQAQSLLRRLKTTHFEPGSHYSYCNGNFRILADLIEAHTGRTLVDILSERIFAPAGMKRAELISDTALFDECTGYEGDTVRGFLPATNRIQWMGDAGICASLNDMIAWEQFIDATRDDESGLYRRLSGPQTFKDGVAAPYGFGLNLHETGGKRLTGHGGALRGWRCQRWHCADERLSTIAMFNFEGGASEVAFKLMNIALGVSSSEVSRVEADSAWFGSWLDDETGLVLSLEDAGHGRMKARFGTSPEMMDVVSANEARSAVTTIRRDGETIELVRASENLRLSMKRVKGEAKHDIIGRYHSDELDADLLLVSEGGAIYGAFEGFLGKSDMYPLYSVGSDVWLLPVQRSMDAPSPGEWKLVFRRDDKGEITGLSVGCWLARGVEYRRVQP | soluble |
| MGSDKIHHHHHHMRNQSKMPLVERLDAHAKSCPISLHVPGHKSGAIYPDAWQKFLKWDVTEITGMDDLHHPEDVILEAEELLAECYGSKKSYFLVNGTSGGSLAVIMATLKHGEKVLVPRDAHKSILHGIELAGGEPIFLTPATNKEVGVASGVTTELLEETLHNHPDIKLCIFTYPSYYGTTFNLHKCIQIAHDFGAVVFVDEAHGAHFLTSSEFPKSAVELGADVVVQSAHKTLPALTMGSYLHVVNDLPIFEKLPYYLQVFQTSSPSYLIMASLDAARKYAATYTAADVEAFWKMRARWIKWLTKNKFDVILPDDPLKIIVRKTGYTGYELQAIFEESSYFPELADESQVLLILPLIKKGIDFTPISRIHSPVKKEIAKEPYEMSAPFASGLALTYEEMHARATEFVLLDEATTRVSAETISLYPPGIPAIIRGESITEKHIRELKNIRTRHYQGGEKLAENYIRVFR | not soluble |
| MCIAIPGKMTAIVDENTATIDMGGICRDVNMALMGGAEESMIGKHFLVHVGYAISEISEEESEETMRLLKIMAGLEEIDSFENESQ | not soluble |
| MQFLSIGVNDDADSLKEYLINELARNNKKNINYLVRDVADSEGSTSIICSLADNDAPSDMNSHLYKELVLNVSNALATFIIDKYEEKLIYRIINSNYCYFTQAERKEIQRLTLAIIKNEERNLLNSFFQIRRKNIIIKRLLEYFESSNTVILDGFVNFRLKDYMKDLEEIVEKAVDDFLMEREYREFIRLLRYFVDIQEPKFNAVHIIAGYDNKYVLLDENKNEITNECLQEFVNDIPEGEINYDDLLVSSLITMAPRKLVIHGAKSFRNKELLETIKNVFWGKVVICSECELCMVNMVRSENKSQI | not soluble |
